T1: Ire1KR32 (Saccharomyces cerevisiae? ("yeast"), UniProt P32361 641-1115)
T1 sequence: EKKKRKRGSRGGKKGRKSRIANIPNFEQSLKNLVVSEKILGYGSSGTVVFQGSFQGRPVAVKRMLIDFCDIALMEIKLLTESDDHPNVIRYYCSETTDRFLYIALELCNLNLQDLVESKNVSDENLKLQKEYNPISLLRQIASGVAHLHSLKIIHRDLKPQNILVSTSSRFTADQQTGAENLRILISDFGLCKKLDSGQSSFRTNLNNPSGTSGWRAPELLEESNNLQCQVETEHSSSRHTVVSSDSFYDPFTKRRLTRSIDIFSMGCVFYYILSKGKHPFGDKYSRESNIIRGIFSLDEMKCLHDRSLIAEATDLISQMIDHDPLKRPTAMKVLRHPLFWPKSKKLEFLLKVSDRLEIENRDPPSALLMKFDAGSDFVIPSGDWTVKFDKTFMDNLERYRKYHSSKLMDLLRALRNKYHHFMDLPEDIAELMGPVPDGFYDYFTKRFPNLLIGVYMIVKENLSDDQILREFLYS


What was measured:
[1] = biological target: Ire1KR32 (wild type) (yeast)
[2] = biological target: T1, Ire1KR32; test: competition (inhibition of 32P-HP21 cleavage); apparent Ki; 2 mM Mg2+, 2 mM ADP, 3 uM Ire1KR32; 20 mM HEPES pH 7.4, 70 mM NaCl, 5% glycerol, 2 mM Mg(CH3COO)2, 2 mM ADP, 4 mM DTT, 30 C; settings: protein: recombinant; tags: GST removed with Prescission protease; label: none; single strand

Row | RNase activity (single-turnover cleavage of 32P-HP21) of 1.5 μM wild-type Ire1KR32 titrated with 0.1-15 μM Ire1KR32(H1061N); in trans activation, inhibition at excessive H1061N [1] | Molecule | Ki [2]
1 | 10 fold | Ire1KR32(H1061N) (domain or fragment) | –
2 | – | CCGCAG (ssDNA, 2'-deoxy throughout) [dCdCdGdCdAdG (2'-deoxy-CCGCAG)] | 200 ± 50 µM
